Experimental data taken from the nanobody polyreactivity screen of Harvey et al. (2022).

Assay: yeast display, Sf9 membrane polyspecificity reagent, FACS + sequencing; frameworks hold sequencing errors
Summary of the method: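 In a synthetic yeast display library (Saccharomyces cerevisiae BJ5465), nanobody expression was induced with galactose for 36–48 hours. FACS gates were set low and high (top ~1%) using anti-HA fluorescence for expression and streptavidin fluorescence for binding of the Sf9 membrane reagent. Each polyreactivity label is drawn from the gate of origin.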

Row | Sequence | polyreactivity (PSR sort gate)
1 | QVQLVESGGGLVQPGGSLRLSCAASGLTFDDNAKGWYRHAPGKERELVAAISKSGDGTYYADSVKGRFTISRDNAKNTVYLHMNSLKPEDTAVYYCNADAKYWRYVYWWFGDDYWGQGTQVTVSS | low polyreactivity
2 | QVQLVESGGGLVQAGGSLRLSCAASGRIFEHYAMGWYRQAPGKERELVAAITSSGDSTYYADSVKGRFTISRDNAKNTVYLQMNSLKPEDTAVYYCNAVAYISYLWGYYLSTPYDYWGQGTQVTVSS | high polyreactivity
3 | QVQLVESGRGLVQAGGSLRLSCAASGSTFRYYAMGWYRQAPGKERELVAAISYSGGSTYYADSVKGRFTISRDNAKNTVYLQMNSLKPEDTAVYYCASSWYSIGKRYYYWGQGTQVTVSS | high polyreactivity
4 | QVQLVESGGGLVQAGGSLRLSCAGSGSTLAIYAMGWYRHAPGKERELVAAISGGGSTYADSVKGRFTISRDNAKNTVYLQMISLKPEDTAVYYCNADGWGDRFWSNFRFDYWGQGTQVTVSS | low polyreactivity
5 | QVQLVESGGGLVQAGGSLRLSCAASGRIFGVYALGWYRQAPGKERELVAVISSGGSTKYADSVKGRFTISRDTAKNTVYLQMNSLKPEDTAVYYCAAADYRFWSRYDYWGQGTQVTVSS | low polyreactivity
6 | QVQLVESGGGLVQAGGSLRLSCAASGRILPYYAMGWYRPAPGKERELVAALTGGGGSTYYADSVKGRFTISRDNAKNTVYLQMNSLKPEDTAVYYCAKPRGRASLALYRFSLYYYWGQGTQVTVSS | high polyreactivity
7 | QVQLVESGGGLVQAGGSLRLSCASSGLTFYKNAMGWYRQAPGKERELVAVISSSGGSTYYADSVKGRFTISRDNAKNTVYLQMNSLKPEDTAVYYGGRDLYTEYRWGRLTYDYWGHGTQVTVSS | low polyreactivity
8 | QVQLVESGVGLVQAGGSLRLSCAASGRTFFGYAMGWYRQAPGKEREFVARISWRGTSTTYADSVKGRFTISRDNAKNTVYLQMNSLKPEDTAVYYCAASQYGLRVYFTVGYWGQGTQVTVSS | high polyreactivity
9 | QVQRVESGGGLVQARGSLRLSCAASGRIFYRYAMGWNIQAPGKERELVAAISGSVGSTYADSVKGRFTISRDNAKNTVYLQMNSLKPEDTAVYYCARETYRRYGAYDYWGQGTQVSVSS | low polyreactivity
10 | QVQLVESGGGLVQAGGSLRLSCAASGSTFSTNAMGWYRQAPGKERELVAAISWSDDDTYYADSVKGRFTISRDNAKNTVYLQMNSLKPEDTGVYYCAAEGVGPARVYQGGEYNYWGQGTQVTVSS | low polyreactivity
11 | QVQLVESRGGLVQAGGSLRLSCAASGRIFRYYAMGWYRQAPGTEREMVAAIRYRGASTYYADSVKGRFTISRDNAKNTVYLQMNSLKPEDTAVYYCAAYDYHPYRIVGASRSDYWGQGTQVTVSS | high polyreactivity
12 | QVQLVESGGGLVQAGGSLRLSCAASGRTFPRYTMGWYRQAPGKERELVAASATGGSTYYADSVKGRFTISRDNAKNTVYLQMNSLKPEDTAVYYCAAYKLYPYYSTEYDYWGQGTQVTVSS | high polyreactivity
13 | QVQLVESGGGLVQAGGSLRLSCAASGRIFSRNAMGRYSQAPGKERELVAAIRWRSGSTYYADSVKGRFTISRDNAKNTVYLQMNSLNPEDTAVYYCAASGPGYSRYTQYDSWGQGTQVTESS | high polyreactivity
14 | QVQLVESGGGLVQAGGSLRLSCAASGRTFPYYAMGWYRQAPGKERELVARITSGSGTYYADSVKGRFTISRDNAKNTVYLQMNSLKPEDTAVYYCAAREPGVGYVGHYTGLDYWGQGTQVTVSS | low polyreactivity
15 | QVQLVESGGGLVQAGGSLRLSCAASGLIFPRYAMGWYRQAPGKERELVAAITRGGSTYYADSVKGRFTISRDNAKNTVYLQMNSLNPEDTAVYYCTAELPVHWSWYDYWGQGPQVTVSS | low polyreactivity
16 | QVQLVESGGGLVQAGGSLRLSCAASGIIFYYYVMGWYRQAPGKERELVAAISRSGGRTRYADSVKGRFTISRDNAKNTVYLQMNSLKPEDTAVYYCAAVGSVNYDADFDYWGQGTQVTVSS | high polyreactivity
17 | QFQLEESGGGLVQAGGSLRLSCAASARIFLNYAMGWFRQAPGKEMELVAAIRSASSTYYADSVKGRFTISRDNAKNTVYLQMNSLKAEDTAVYYCARLRYFLLNGSLRYGSSDRDYWGQGTQVTVSS | high polyreactivity
18 | QVQLVESGGGLVQAGGSLRLSCAASGSIFTRNAMGWYRQAPGKERELVASISWRGGSTYYADSVKGRFTISRDNAKNTVYLQMNSLKPEDTAVYYCNRRAYRNGYGFRDGTWEYDYWGQGTQVTVSS | high polyreactivity
19 | QVQLVESGGGLVQAGGSLPLSCAASGYTFQRYAMGWYRQAPGKERELVAAITGAGGSTYYADSVKGRFTISRDNAKNTVYLQMNSLKPEDTAVYYCAARQYRRVIKHGYNYWGQGTQVTVSS | high polyreactivity
20 | QVQLVESGGGKVKAGGSLRISCAASGRTYRYAMGWYRQAPGKERELVAAITSGGRTNYADSVKGRFTISRDNAKNTVYLQMNSLKPEDTAVYYCAAQWYTVITSWYGYWGQGTQVTVSS | low polyreactivity
21 | QVQHEESGGGLVQAGGSLRLSCAASGRIFGAYPMGWSRQATGKERELVAAITSRGGNTYYADSVKGRFTISRDNAKNTVYLQMNSLKPEDTAVYYCAARHDKRRQYYVGQSAFDYWGQGTQVTVSS | low polyreactivity
22 | QVQLVESGGGLVQAGGSLRLSCAASGFTFGYYVMGWYRQAPGKERELVAAITSGGRTKYADSVKGRFTISRDNAKNTVYLQMNSLKPEDTAVYYCAAKSRVHVDYWGQGTQVTVSS | high polyreactivity

Row | Sequence | polyreactivity (PSR sort gate)
23 | QVQLVESGGGLVQAGGSLRLSCAATGRPSTSMLWDGIDRRLGKKGSSLTYYADSVKGRFTISRDNAKNTVYLQMNCLKPEDTAVYYCNKRRRWDNYGYRYGYWGQGTQVTVSS | low polyreactivity
24 | QVQLVESGGGLVQAGGSLRLSCAASGFIFSYYVMGWYRQAPGKERELVAGISWNGGRTYYADSVKGRFTISRDNAKNTVYFQMNSLKPEDTAVYYCAKDPYSKRRASSGYDYWGQGTQVTVSS | low polyreactivity
25 | QVQLVESGGGLVQAGGSLRLSCAASGITFGGNAMGWYRQDPGKERELVAAISSSGGSTYYADSVKGRFTISRDNAKNTVYLQMNSLKPEDTAVYYCAARNRYPLRFYYWGQGTQVTVSS | high polyreactivity
26 | QVQHVESGGGLVQAGGSLRLSCAASGYIFSRYRGWYRQAPGTERELVAAITRGGVSTYYADSVKGRFTISRDNAKNTVYLQMNSLKPEDTAVYYCATGRPVYYVASYDYDYWGQGTQVTVSS | low polyreactivity
27 | QVQLVESGGGLVQAGGSLRLSCAASGSTFFLNAMGWYRQAPGKESEFVAAISYTSTSTYYADSVKGRFTISRDNAKNTVYLQMNSLKPEDTAVYYCAVDAAGWYYTVETGDYAEDYWGQGTQVTVSS | low polyreactivity
28 | QVQLVESGGGLVHAGGSLRLSCAASGRIFQVYAMGWYRQAPGKERELVAAISARGGSTYYADSVKGRFTISRDNAKNTVYLQMNSLKPEDTAVYYCAARSAYGTQRLYYWGQGTQVTVSS | high polyreactivity
29 | QVQLVESGGGLVQAGGSLRLSCAASGRIFRFYAMGWYRQAPGKERELVAAISSRGGSTYYADSVKGRFTISRDNAKNTVYLQMNSLKPEDTAVYYCNAYGSTSQMDYWGQGTQVTVSS | high polyreactivity
30 | QVQLVESGGGLVQAGGSLRLSSAASGSTFEYNAMGWYRQAPGKERELVASSTNYADSVKGRFTISRDNAKNTVYLQMNSLKPEDTAVYYCAREQGVNRNHDYWGQGTQVTVSS | low polyreactivity
31 | QVQLVESGGGLVQAGGSLRLSCAASGSTFGPYAMGWYRQAPGKERELVATISGSGSSTYYADSVKGRFTISRDNAKNTVYLQMNSLKPEDTAVYYCATDLYFDLRYDYWGQGTQVTVSS | low polyreactivity
32 | QVQLVESGGGLVQAGGSLRLTCAASGRTFSYYTIGWYRQAPGKELELVADITGSGGSTYYADSVKGRFTISRDNAKNTVYLQINSLKPEDTAVYYCSAGWPYVYYTWYWTMDYWGQGTQVTVSS | high polyreactivity
33 | QVQLVESGGGLVQAGGSLRLSCAASGITFGSYAMGWYRQAPGKERELVAAITWRGGTTYYADSVKARFTISRDNAKNTVYLQMNSLKPEDTAVYYCNTAWTGYPRYQYGGNYWGQGTQVTVSS | high polyreactivity
34 | QVQLVESVGGLVQAGGSLRLSCAASGSTIDGYAMGCYIQAPGKEREFVAAISFSSASTYYADSVKGRFTISRDNAKNTVYLQMNSLKPEDTAVYYCNADFFDSGGSIEDDSWGQGTQVTVSS | low polyreactivity
35 | QVQLVETGGGLVQAGGSLRLSCAASGIIFREYAMGWYRQAPGKEMELVAAITRSGGSTNYADSVKGRFTISRDNAKNTVYLLMNSLKPEDTAVYYCASDYQRNDFRWYDYWGQGTLVTVSS | low polyreactivity
36 | QVQLVESGGGLVQAGGSLRLSCAASGSTFQYNVMGWYRPAPGKERELVATISYSSGRTYYADSVKGRFTISRDNAKNTVYLQMNSLKPEDTAVYYCAAAVRLYFWTSAYKYGYWGQGTQVTVSS | high polyreactivity
37 | QVQLVESGGGLVQAGGSLRLSCAASGSTFRYNAMGWYRQAPGKERELVAAITSGGGTNYADSVKGRFTISRDNAKNTVYLQMKSLKPEDTAVYYCAAPWGLGSELLKRDYWGQGTQVTVSS | low polyreactivity
38 | QVQLVESGGGLVQAGGSLRLSCAASGRIFRYNAMGWYRQAPGKERELVATISRGGGSTYYADSVKGRFTISLDNAKNTVYLQMNSLKPEDTAVYYCATRYYQDIVGYSRYDYWGQGTQVTVSS | high polyreactivity
39 | QVQLVESCGGLVQPGGSLRLSCAASGSTFVNYAMGWYRQAPGKERELVAAITRGVRTYYADSVKGRFTISRDNAKNTVYLQMNSLKAEDTAVYYCNRAIGPYSYPDNYWGQGTQVTVSS | high polyreactivity
40 | QVQLVESGGGLVQAGGSLRLSCAASGNSFYSYAMGRYRQAPGKERELVAAITIDGSTTYADSVKGRFTISRDNAKNTVYLQMNSLKPEDTAVSYCNADGFTSDPYDSDDWGQGTLVTVSS | low polyreactivity
41 | QVQLVESGGGLVQAGGSLRLSCAASGITFVLNVMGWYRQAPGKERELVAAISWSVGGTYYADSVKGRFTISRDNAKNTVYLQMNSLKPEDTAVYYCAAGSYAYDNYGSEYWKWYGYWGQGTQVTVSS | low polyreactivity
42 | QVQLVESGGGLVQAGGSLRLSCAASGRIFFYNAMGWYRQAPGKERELVAGISRSGTSTYYADSVKGRFTISRDNAKNTVYLQMNSLKPEDTAVYYCAADAWSVILWREMDYWGQGTQVTVSS | low polyreactivity
43 | QVQLVESGGGLVQAGGSLRLSCAASGSTFESNTMGWYSQAPGKERELVAAISYSGGRTYYADSVKGRFTISRDNAKNTVYLQMNSLKPEDTAVYYCAARWSVSYQYWGQGTQVTVSS | high polyreactivity
